Laboratory results reported in patent US20120135923A1, “Use of Melanocortins to Treat Dyslipidemia” (IPSEN PHARMA, S.A.S., priority 2009, published 2012).
Bridge positions count the residues as written; N and C are the ends. Square brackets hold non-standard residues; d marks the D form. 1Nal = N[C@@H](Cc1cccc2ccccc12)C(=O)O; 2Nal = N[C@@H](Cc1ccc2ccccc2c1)C(=O)O; d2Nal = N[C@H](Cc1ccc2ccccc2c1)C(=O)O

What was measured:
Assay in all cases: cell-based or functional assay
[1] = target: hMC4-R (human) (UniProt P32245)
hMC4-R (human), sequence (P32245 whole entry): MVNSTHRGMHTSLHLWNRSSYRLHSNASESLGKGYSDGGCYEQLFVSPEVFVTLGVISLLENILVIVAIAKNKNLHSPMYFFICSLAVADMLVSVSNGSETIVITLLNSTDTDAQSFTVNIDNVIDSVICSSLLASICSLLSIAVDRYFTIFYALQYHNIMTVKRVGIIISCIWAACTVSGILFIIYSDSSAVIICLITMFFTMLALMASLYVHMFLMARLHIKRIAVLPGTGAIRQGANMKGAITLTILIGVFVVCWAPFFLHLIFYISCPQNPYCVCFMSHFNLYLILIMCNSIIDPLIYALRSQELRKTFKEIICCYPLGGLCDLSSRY

[2] = target: hMC3-R (human) (UniProt P41968)
hMC3-R (human), sequence (P41968 whole entry): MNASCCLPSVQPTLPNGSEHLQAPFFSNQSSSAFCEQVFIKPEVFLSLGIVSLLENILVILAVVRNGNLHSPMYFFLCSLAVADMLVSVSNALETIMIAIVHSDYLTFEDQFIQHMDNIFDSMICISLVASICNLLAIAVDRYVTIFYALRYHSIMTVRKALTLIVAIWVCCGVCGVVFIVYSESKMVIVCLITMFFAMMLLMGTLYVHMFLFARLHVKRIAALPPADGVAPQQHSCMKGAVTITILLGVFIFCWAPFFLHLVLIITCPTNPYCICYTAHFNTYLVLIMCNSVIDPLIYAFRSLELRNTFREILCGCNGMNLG

[3] = target: hMC1-R (human) (UniProt Q01726)
hMC1-R (human), sequence (Q01726 whole entry): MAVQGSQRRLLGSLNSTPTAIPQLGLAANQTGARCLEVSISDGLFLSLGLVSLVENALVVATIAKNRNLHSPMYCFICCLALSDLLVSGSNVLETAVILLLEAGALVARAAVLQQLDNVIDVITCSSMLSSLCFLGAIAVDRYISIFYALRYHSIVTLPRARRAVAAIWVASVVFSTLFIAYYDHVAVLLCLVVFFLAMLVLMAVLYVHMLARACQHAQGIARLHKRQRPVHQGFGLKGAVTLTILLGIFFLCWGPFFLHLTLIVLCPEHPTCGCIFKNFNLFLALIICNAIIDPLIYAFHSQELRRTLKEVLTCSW

[4] = target: hMC5-R (human) (UniProt P33032)
hMC5-R (human), sequence (P33032 whole entry): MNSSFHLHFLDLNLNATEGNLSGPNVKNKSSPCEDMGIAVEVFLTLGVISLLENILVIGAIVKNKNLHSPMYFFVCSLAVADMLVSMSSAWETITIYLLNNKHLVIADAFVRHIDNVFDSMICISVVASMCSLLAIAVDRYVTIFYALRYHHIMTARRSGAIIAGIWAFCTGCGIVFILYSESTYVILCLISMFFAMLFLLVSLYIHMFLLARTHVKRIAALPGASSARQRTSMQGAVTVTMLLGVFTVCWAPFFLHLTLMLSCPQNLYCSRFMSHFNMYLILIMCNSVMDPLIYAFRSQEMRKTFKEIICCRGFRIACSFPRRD

Row | Substance | cAMP EC50 [1] [nM] | cAMP EC50 [2] [nM] | cAMP EC50 [3] | cAMP EC50 [4] [nM] | cAMP Kb [1] | cAMP Kb [2]
1 | Ac-Nle-c(Asp-His-D-2-Nal-Arg-Trp-Lys)-β-Ala-Tyr-Gly-Arg-Lys-Lys-Arg-Arg-Gln-Arg-Arg-Arg-NH2 (peptide; in nM (unit assumed)) | – | – | – | – | 4.07 | 220
2 | Ac-c(Cys-Glu-His-D-2-Nal-Arg-Trp-Ala-Cys)-Pro-Pro-Lys-Asp-β-Ala-Tyr-Gly-Arg-Lys-Lys-Arg-Arg-Gln-Arg-Arg-Arg-NH2 (peptide; in nM (unit assumed)) | – | – | 6.3 | – | 1.66 | 70
3 | Hydantoin(C(O)-(Gly-D-Arg))-c(Cys-D-Ala-His-D-Phe-Arg-Trp-Cys)-NH2 (peptide; unit assumed) | 0.435 | 11.6 | 7.53 nM | – | – | –
4 | Nle-c(Asp-His-D-2-Nal-Arg-Trp-Lys)-β-Ala-Tyr-Gly-Arg-Lys-Lys-Arg-Arg-Gln-Arg-Arg-Arg-NH2 (peptide; in nM (unit assumed)) | – | – | – | – | 18.5 | 207
5 | Ac-CEH[d2Nal]R[1Nal]ACPPKD-NH2 (disulfide 1-8) [listing 1 of 2 here] | – | – | – | 104 | – | –
6 | Ac-Nle-c(Cys-D-Ala-His-D-Phe-Arg-Trp-Cys)-NH2 (peptide; unit assumed) | 0.078 | 0.33 | 2.4 nM | 420 | – | –
7 | Hydantoin(C(O)-(A6c-Nle))-c(Cys-D-Ala-His-D-Phe-Arg-Trp-Cys)-NH2 (peptide; unit assumed) | 1.8 | – | – | – | – | –
8 | Hydantoin(C(O)-(Gly-Gly))-c(Cys-D-Ala-His-D-Phe-Arg-Trp-Cys)-NH2 (peptide; unit assumed) | 0.336 | 2.46 | 14.2 nM | – | – | –
9 | Ac-Arg-c(Cys-D-Ala-His-D-Phe-Arg-Trp-Cys)-NH2 (peptide; unit assumed) | – | – | – | 1630 | – | –
10 | Ac-Nle-c(Asp-His-D-2-Nal-Arg-Trp-Lys)-β-Ala-β-Ala-Tyr-Gly-Arg-Lys-Lys-Arg-Arg-Gln-Arg-Arg-Arg-NH2 (peptide; unit assumed) | – | – | – | 0.839 | – | –
11 | Hydantoin(C(O)-(Ala-Gly))-c(Cys-D-Ala-His-D-Phe-Arg-Trp-Cys)-NH2 (peptide; unit assumed) | 0.241 | 2.23 | 17.6 nM | – | – | –
12 | Hydantoin(C(O)-(Leu-Nle))-c(Cys-D-Ala-His-D-Phe-Arg-Trp-Cys)-NH2 (peptide; unit assumed) | 1.83 | 9.68 | – | – | – | –
13 | Ac-Nle-c(Asp-His-D-2-Nal-Arg-Trp-Lys)-β-Ala-β-Ala-Tyr-Gly-Arg-Lys-Lys-Arg-Arg-Gln-Arg-Arg-Arg-NH2 (peptide; in nM (unit assumed)) | – | – | 1.39 | – | 7.94 | 16.2
14 | c[Hydantoin(C(O)-(Glu-D-Ala))-His-D-Phe-Arg-Trp-Lys]-NH2 (peptide; unit assumed) | 3.62 | 22.3 | – | – | – | –
15 | Hydantoin(C(O)-(D-Arg-Gly))-c(Cys-Glu-His-D-Phe-Arg-Trp-Cys)-NH2 (peptide; unit assumed) | 0.16 | 17.1 | 18 nM | – | – | –
16 | Ac-Nle-c(Asp-His-D-2-Nal-Arg-Trp-Ala-Lys)-NH2 (peptide; unit assumed) | – | – | 0.619 nM | – | – | –
17 | Ac-Arg-c(Cys-D-Ala-His-D-Phe-Arg-Trp-Pen)-NH2 (peptide; unit assumed) | – | 13.3 | 48.3 nM | 10000 | – | –
18 | Hydantoin(C(O)-(Arg-Gly))-c(Cys-Glu-His-D-Phe-Arg-Trp-Cys)-NH2 (peptide) | – | – | – | 4010 | – | –
19 | Hydantoin(C(O)-(Gly-Arg))-c(Cys-D-Ala-His-D-Phe-Arg-Trp-Cys)-NH2 (peptide) | – | – | – | 3610 | – | –
20 | Hydantoin(C(O)-(Arg-Gly))-c(Cys-D-Ala-His-D-Phe-Arg-Trp-Cys)-NH2 (peptide) | – | – | – | 3560 | – | –
21 | Ac-CEH[d2Nal]R[1Nal]ACPPKD-NH2 (disulfide 1-8) [listing 2 of 2 here] | – | – | 269 | – | 5.92 | 105
22 | Hydantoin(C(O)-(Nle-Gly))-c(Cys-Glu-His-D-Phe-Arg-Trp-Cys)-NH2 (peptide) | – | – | – | > 10000 | – | –
23 | Ac-Nle-c(Asp-His-D-2-Nal-Arg-Trp-β-Ala-Lys)-NH2 (peptide; unit assumed) | – | – | 0.913 nM | – | – | –
24 | Ac-CEH[d2Nal]R[2Nal]ACPPKD-NH2 (disulfide 1-8) [listing 2 of 2 here] | – | – | 33.6 | – | 12.2 | 140
25 | Ac-c(Cys-Glu-His-D-2-Nal-Arg-Trp-Ala-Cys)-Pro-Pro-Lys-Asp-β-Ala-Tyr-Gly-Arg-Lys-Lys-Arg-Arg-Gln-Arg-Arg-Arg-NH2 (peptide; unit assumed) | – | – | – | 38.2 | – | –
26 | Ac-Tyr-Arg-c(Cys-D-Ala-His-D-Phe-Arg-Trp-Cys)-NH2 (peptide; unit assumed) | – | 2.39 | – | 1540 | – | –
27 | Hydantoin(C(O)-(Gly-Arg))-c(Cys-Glu-His-D-Phe-Arg-Trp-Cys)-NH2 (peptide; unit assumed) | 0.0687 | 3.63 | 9.97 nM | – | – | –
28 | Hydantoin(C(O)-(Gly-Gly))-c(Cys-Glu-His-D-Phe-Arg-Trp-Cys)-NH2 (peptide) | – | – | – | > 10000 | – | –

More lines, main results first:

Row | cAMP EC50 [1] [nM] | cAMP EC50 [2] [nM] | cAMP EC50 [3] | cAMP EC50 [4] [nM] | Substance | cAMP Kb [1] | cAMP Kb [2]
29 | 0.125 | 10.3 | 12.9 nM | – | Hydantoin(C(O)-(Gly-D-Arg))-c(Cys-Glu-His-D-Phe-Arg-Trp-Cys)-NH2 (peptide; unit assumed) | – | –
30 | 0.513 | 23.2 | 11.5 nM | – | Hydantoin(C(O)-(D-Arg-Gly))-c(Cys-D-Ala-His-D-Phe-Arg-Trp-Cys)-NH2 (peptide; unit assumed) | – | –
31 | 0.219 | 3.95 | 5.78 nM | 2580 | Ac-WRC[dA]H[dF]RWC-NH2 (disulfide 3-9) | – | –
32 | 0.055 | 2.89 | 1.39 nM | 467 | Ac-Arg-c(Asp-His-D-Phe-Arg-Trp-Ala-Lys)-NH2 (peptide; unit assumed) | – | –
33 | 0.214 | 8.05 | 124 nM | – | Hydantoin(C(O)-(Gly-Gly))-c(Cys-Glu-His-D-Phe-Arg-Trp-Cys)-NH2 (peptide; unit assumed) | – | –
34 | – | – | – | 335 | Hydantoin(C(O)-(Gly-Arg))-c(Cys-Glu-His-D-Phe-Arg-Trp-Cys)-NH2 (peptide) | – | –
35 | 0.183 | 2.03 | 14.3 nM | 2240 | Ac-Nle-c(Cys-D-Ala-His-D-Phe-Arg-Trp-Pen)-NH2 (peptide; unit assumed) | – | –
36 | 0.584 | 21.5 | 17 nM | – | Hydantoin(C(O)-(Nle-Gly))-c(Cys-D-Ala-His-D-Phe-Arg-Trp-Pen)-NH2 (peptide; unit assumed) | – | –
37 | 0.531 | 1.89 | – | – | Ac-Nle-c(Pen-D-Ala-His-D-Phe-Arg-Trp-Cys)-NH2 (peptide; unit assumed) | – | –
38 | – | – | – | 1020 | Ac-D-Arg-c(Cys-D-Ala-His-D-Phe-Arg-Trp-Cys)-NH2 (peptide; unit assumed) | – | –
39 | 0.363 | 4.21 | 8.67 nM | 1320 | Ac-1-Nal-Arg-c(Cys-D-Ala-His-D-Phe-Arg-Trp-Cys)-NH2 (peptide; unit assumed) | – | –
40 | – | 10.5 | 26.5 nM | 2440 | Ac-D-Arg-c(Cys-D-Ala-His-D-Phe-Arg-Trp-Pen)-NH2 (peptide; unit assumed) | – | –
41 | 0.0979 | 7.86 | 8.83 nM | – | Hydantoin(C(O)-(Arg-Gly))-c(Cys-Glu-His-D-Phe-Arg-Trp-Cys)-NH2 (peptide; unit assumed) | – | –
42 | 1.85 | 8.51 | – | – | c[Hydantoin(C(O)-(Ile-Cys))-D-Ala-His-D-Phe-Arg-Trp-Cys]-NH2 (peptide; unit assumed) | – | –
43 | – | – | – | 201 | Hydantoin(C(O)-(Gly-Gly))-c(Cys-D-Ala-His-D-Phe-Arg-Trp-Cys)-NH2 (peptide) | – | –
44 | 0.309 | 2.22 | 4.7 nM | – | Hydantoin(C(O)-(D-Ala-Gly))-c(Cys-D-Ala-His-D-Phe-Arg-Trp-Cys)-NH2 (peptide; unit assumed) | – | –
45 | – | – | – | 66.9 | Ac-CEH[d2Nal]R[2Nal]ACPPKD-NH2 (disulfide 1-8) [listing 1 of 2 here] | – | –
46 | 0.977 | 4.61 | – | – | Hydantoin(C(O)-(Val-Nle))-c(Cys-D-Ala-His-D-Phe-Arg-Trp-Cys)-NH2 (peptide; unit assumed) | – | –
47 | – | – | – | 9840 | Hydantoin(C(O)-(Gly-D-Arg))-c(Cys-D-Ala-His-D-Phe-Arg-Trp-Cys)-NH2 (peptide) | – | –
48 | – | – | – | 177 | Ac-c(Cys-Glu-His-D-2-Nal-Arg-Bal-Ala-Cys)-Pro-Pro-Lys-Asp-NH2 (peptide; unit assumed) | – | –
49 | – | – | – | 352 | Hydantoin(C(O)-(Nle-Gly))-c(Cys-D-Ala-His-D-Phe-Arg-Trp-Pen)-NH2 (peptide) | – | –
50 | – | – | 690 | – | Ac-c(Cys-Glu-His-D-2-Nal-Arg-Bal-Ala-Cys)-Pro-Pro-Lys-Asp-NH2 (peptide; in nM (unit assumed)) | 4.56 | 70.7
51 | 0.503 | 18.2 | 8.81 nM | – | Hydantoin(C(O)-(Arg-Gly))-c(Cys-D-Ala-His-D-Phe-Arg-Trp-Cys)-NH2 (peptide; unit assumed) | – | –
52 | 0.599 | 5.17 | 8.85 nM | – | Hydantoin(C(O)-(Gly-Arg))-c(Cys-D-Ala-His-D-Phe-Arg-Trp-Cys)-NH2 (peptide; unit assumed) | – | –
53 | 0.177 | 12.2 | 54.3 nM | – | Hydantoin(C(O)-(Nle-Gly))-c(Cys-Glu-His-D-Phe-Arg-Trp-Cys)-NH2 (peptide; unit assumed) | – | –
54 | 1.47 | 2.56 | – | – | Hydantoin(C(O)-(D-Ala-Nle))-c(Cys-D-Ala-His-D-Phe-Arg-Trp-Cys)-NH2 (peptide; unit assumed) | – | –
55 | – | – | – | 516 | Hydantoin(C(O)-(Ala-Gly))-c(Cys-D-Ala-His-D-Phe-Arg-Trp-Cys)-NH2 (peptide) | – | –
